Test results as given in article PMC12136191, “Structural basis for mTORC1 regulation by the CASTOR1-GATOR2 complex” (Research Square, 2025).

B1: MIOS, subunit within purified GATOR2 (natural protein)
chain: MSGTKPDILWAPHHVDRFVVCDSELSLYHVESTVNSELKAGSLRLSEDSAATLLSINSDTPYMKCVAWYLNYDPECLLAVGQANGRVVLTSLGQDHNSKFKDLIGKEFVPKHARQCNTLAWNPLDSNWLAAGLDKHRADFSVLIWDICSKYTPDIVPMEKVKLSAGETETTLLVTKPLYELGQNDACLSLCWLPRDQKLLLAGMHRNLAIFDLRNTSQKMFVNTKAVQGVTVDPYFHDRVASFYEGQVAIWDLRKFEKPVLTLTEQPKPLTKVAWCPTRTGLLATLTRDSNIIRLYDMQHTPTPIGDETEPTIIERSVQPCDNYIASFAWHPTSQNRMIVVTPNRTMSDFTVFERISLAWSPITSLMWACGRHLYECTEEENDNSLEKDIATKMRLRALSRYGLDTEQVWRNHILAGNEDPQLKSLWYTLHFMKQYTEDMDQKSPGNKGSLVYAGIKSIVKSSLGMVESSRHNWSGLDKQSDIQNLNEERILALQLCGWIKKGTDVDVGPFLNSLVQEGEWERAAAVALFNLDIRRAIQILNEGASSEKGDLNLNVVAMALSGYTDEKNSLWREMCSTLRLQLNNPYLCVMFAFLTSETGSYDGVLYENKVAVRDRVAFACKFLSDTQLNRYIEKLTNEMKEAGNLEGILLTGLTKDGVDLMESYVDRTGDVQTASYCMLQGSPLDVLKDERVQYWIENYRNLLDAWRFWHKRAEFDIHRSKLDPSSKPLAQVFVSCNFCGKSISYSCSAVPHQGRGFSQYGVSGSPTKSKVTSCPGCRKPLPRCALCLINMGTPVSSCPGGTKSDEKVDLSKDKKLAQFNNWFTWCHNCRHGGHAGHMLSWFRDHAECPVSACTCKCMQLDTTGNLVPAETVQP
notes: MIOS, subunit of GATOR2; codon optimized synthetic DNA; The MIOS chain of m1, written alone for the pairs that touch in the structure; also called front face MIOS; source: HEK293-GNTI cells, co-expressed with the other GATOR2 subunits, purified as part of GATOR2
B2: CASTOR1 S111A/D304A (apo-locked mutant) (natural protein)
chain: MELHILEHRVRVLSVARPGLWLYTHPLIKLLFLPRRSRCKFFSLTETPEDYTLMVDEEGFKELPPSEFLQVAEATWLVLNVSSHSGAAVQAAGVTKIARSVIAPLAEHHVAVLMLSTYQTDFILVREQDLSVVIHTLAQEFDIYREVGGEPVPVTRDDSSNGFPRTQHGPSPTVHPIQSPQNRFCVLTLDPETLPAIATTLIDVLFYSHSTPKEAASSSPEPSSITFFAFSLIEGYISIVMDAETQKKFPSDLLLTSSSGELWRMVRIGGQPLGFDECGIVAQIAGPLAAADISAYYISTFNFAHALVPEDGIGSVIEVLQRRQEGLAS
notes: CASTOR1 (arginine sensor) with S111A and D304A; codon optimized synthetic DNA; Homodimer in the structure; also called CASTOR1^apo; 6X-His-CASTOR1^apo; source: E. coli BL21(DE3), pET-28a+, purified (Ni-NTA, Superdex 200 gel filtration)

What was measured:
[1] = molecular target: the molecule itself; experiment: cryo-EM structure; purified GATOR2 at 0.45 mg/mL with 3-fold molar excess of CASTOR1^apo, 45 minutes on ice, frozen on grids; no Arg; Titan Krios
[2] = molecular target: B1; experiment: as above; conditions: both partners purified

Binder	binding result [1]	binding result [2]
B1	binds	–
B2	binds	binds
